Measured values as given in the supplement of paper PMC9170038.

Tested on: MS2 coat protein
Assay: apparent KD of MS2 coat protein; designed switch direction (-1 OFF switch, 1 ON switch): -1; higher = weaker reporter binding
Outline: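 Transcription of designed RNA switches on Illumina chips was done by stalled E. coli RNA polymerase. SNAP-549-labelled MS2 coat protein was then titrated in doubling steps from 0.7 or 1.5 nM to 3 µM, with steps of 0.8–1.5 h at the lowest and 10–20 min at the highest concentration. The per-design median over clusters of curve-fitted normalised fluorescence is reported as apparent KD.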

[1] = input ligand: microRNA oligo, concentration not stated
[2] = Eterna round: R95, input ligand: FMN 200 uM
[3] = Eterna round: R95, input ligand: microRNA oligo, concentration not stated
[4] = Eterna round: R95, input ligand: none

Row | Sequence | apparent KD of MS2 coat protein (input ligand: FMN 200 uM) [nM] | apparent KD of MS2 coat protein [1] [nM] | apparent KD of MS2 coat protein (input ligand: none) [nM] | apparent KD of MS2 coat protein [2] [nM] | apparent KD of MS2 coat protein [3] [nM] | apparent KD of MS2 coat protein [4] [nM]
1 | CAUUCCUAGCGAGGAUAUCAGUAAAAGGGAAGCUGAGAAGGCGCAAACAUGAGGAUCACCCAUGUCACACGCGGGUAGUUUUCC [Uslazaxe] (Eterna round: R96, puzzle: Exclusion NG 1) | 16.2 | 10.8 | 14.3 | – | – | –
2 | UAUUAAACAUAGGAUAUCGAAAAUAUCAUUUAACGAGAAGGAUGAACAUGAGGAUCACCCAUGUGGUAUCAUGG [Mat - Exclusion 6 - JL Mod - D15] (puzzle: Exclusion 6) | – | – | – | 426 | 289 | 148
3 | GGGCUCACGGUCAGGAUAUGUAAAACGUAAGUAUUAUAGAAGGGACAUGAGGAUCACCCAUGUGUGAUGAGCGC [Eternabot (L1) Solution 37] (Eterna round: R97, puzzle: Brourd's mod of Exclusion 4) | 323 | – | 124 | – | – | –
4 | UCUCGCAGGCAAGGAUAUCCUACAUUGUUCUGGCCCGGGCAUGUUACAUGAGGAUCACCCAUGUGGGAGAAGGUGCGCCAGGGC [Design 34] (Eterna round: R96, puzzle: Exclusion NG 2) | 30.6 | 16.3 | 30.6 | – | – | –
5 | CUAAUACAUCAGGAUAUCUAUGAUUAUAGCCAUAGAGAAGGGAUGACAUGAGGAUCACCCAUGUCAAAGGGUGA [eternacac ex6r4 sub21] (Eterna round: R97, puzzle: Exclusion 6) | 426 | – | 879 | – | – | –
6 | GGUGCGUAUGUGAGGAUAUGCUGGUCCUUGGGUCGGCAGAAGGCACAUGAGGAUCACCCAUGUGGUGUCGUUCC [salish99_Bmod_ex4_101] (Eterna round: R96, puzzle: Brourd's mod of Exclusion 4) | 378 | 80.3 | 122 | – | – | –
7 | UGCCCGGUUAGAGGAUAUCUACUGUGACUGGGUUUUCCAAAACAUGAGGAUCACCCAUGUGACGGAGAGAAGGCUAGCCUUAAA [Anedanage] (Eterna round: R96, puzzle: Exclusion NG 2) | 26.8 | 31.1 | 40.1 | – | – | –
8 | CAGUACUGAGGAUAUACAUGAGGAUCACCCAUGUUUUCCAGCUAGGAAACUAGCAAGUGUAGAAGGCAGUACUG [Salish 065 m6] (Eterna round: R97, puzzle: Exclusion 3) | 342 | – | 25.6 | – | – | –
9 | GCCUUAUCUGUCAGGAUAUACAAUAAAAUAAUUAUGUAGAAGGGACAUGAGGAUCACCCAUGUACAUUACAUUG [alecazam25] (Eterna round: R97, puzzle: Brourd's mod of Exclusion 4) | 50 | – | 22 | – | – | –
10 | AGCAUGGUAGGAUAUACGGAGCAUUAGGGUUUGUUGUGUGGACAUGAGGAUCACCCAUGUAGAAGGGCCGUGCA [Mat - Exclusion 2 - Mod of JL - D83] (puzzle: Exclusion 2) | – | – | – | – | 33.5 | –
11 | AAAUAAUAGAUAAAAUAAUACAUGAGGAUCACCCAUGUGCGAUGUUGAGGGUGAUACAGGCUUUUUGCUCGUCUUAU (puzzle: Sensor v3, turn-off variant 1) | – | – | – | 177 | 20.5 | 67.9
12 | GUUCCGGGAGGAUAUACAUGAGGAUCACCCAUGUUCACCAGCUUUAGCUACGACCUAUGUAGAAGGUCUGGAGA [Eternabot (L1) Solution 36] (Eterna round: R97, puzzle: Exclusion 3) | 46.7 | – | 39.7 | – | – | –
13 | CCGGCAUGAGGAUAUCCAUCUGGAUCAGACUAGAUCCUGAUGGAGAAGGCACAUGAGGAUCACCCAUGUUACGG [Eli 4x 4.38] (Eterna round: R97, puzzle: Exclusion 4) | 51.2 | – | 173 | – | – | –
14 | GUAGCUUCGGCUACUACAAGCUUUUUGCUCGUCUUAUUAACAUGAGGAUCACCCAUGUACAAGAGACCUCAUGUAUU [Sensor v3 - turn-off variant 2 - 13] (puzzle: Sensor v3, turn-off variant 2) | – | – | – | 90.4 | 15.6 | 146
15 | GCAAGCUUUUCGAUCCUCGACAUGAGGAUCACCCAUGUGCUCGAAUUGUUUAGUACUAUCACGAAAGUGAUAGUACA [Sensor, turn off variant 1 v.3] (Eterna round: R97, puzzle: Sensor, turn-off variant 1) | 1570 | – | 1570 | – | – | –
16 | AGUGUGUGGCAGGAUAUUCUGUUGGUUCGGACAGAAGAAGGGUCUACAUGAGGAUCACCCAUGUAAGCGGUUGA [Ex6 #34] (Eterna round: R97, puzzle: Exclusion 6) | 173 | – | 264 | – | – | –
17 | ACCUCUAUCUAGGAUAUUGGAACCCGGUUAAAACAAGAAGGAGAUACAUGAGGAUCACCCAUGUUAACGAUGGA [Ereseninso] (puzzle: Exclusion 6) | – | – | – | 97.5 | 23.3 | 28.5

Row | Sequence | apparent KD of MS2 coat protein (input ligand: FMN 200 uM) [nM] | apparent KD of MS2 coat protein [1] [nM] | apparent KD of MS2 coat protein (input ligand: none) [nM] | apparent KD of MS2 coat protein [2] [nM] | apparent KD of MS2 coat protein [3] [nM] | apparent KD of MS2 coat protein [4] [nM]
18 | CAGUACUGAGGAUAUACAUGAGGAUCACCCAUGUGAGAGAUACUAAUGAGGUCGAUUAGUAGAAGGCAGUACUG [Mat X3R4 m4] (Eterna round: R97, puzzle: Exclusion 3) | 240 | – | 17.5 | – | – | –
19 | UACGGGUCAGGAUAUGCGAGAGAGUGGGAAAUAGGAAGGUAGCAGAAGGGACAUGAGGAUCACCCAUGUGAGGC [JR_Exclu4_Sub099] (puzzle: Exclusion 4) | – | – | – | – | 23.8 | –
20 | AAAUACAGGUAAAGAUUCUACAUGAGGAUCACCCAUGUGCUCGUCUUAUAAAGUACUAUCACGAAAGUGAUAGUACA [Sensor 3, v1 - 40] (puzzle: Sensor v3, turn-off variant 1) | – | – | – | 25.9 | 169 | 21.6
21 | CUUUUGUGAGGAUAUUAGUAGUAAAUAAUUAAAAUUAUUACUGAGAAGGCACAUGAGGAUCACCCAUGUUCCUC [Salish 062 v15] (Eterna round: R97, puzzle: Exclusion 4) | 752 | – | 42.9 | – | – | –
22 | ACUCUGCGAGGAUAUACAUGAGGAUCACCCAUGUGCGAGUUACUUGUGAGGUCGGUUGGUAGAAGGCGCGGAGA [Mat - Exclusion 3 - Mod of JL D101] (puzzle: Exclusion 3) | – | – | – | – | 89.7 | –
23 | AGCACGCUUUUGCUCGAUCACAUGAGGAUCACCCAUGUGUGCUAAUAGGCCAAGGUGAAAGCCUCAGACAUAGUUUA [Eternabot (L1) Solution 1] (Eterna round: R97, puzzle: Sensor, turn-off variant 1) | 153 | – | 173 | – | – | –
24 | GGUUGGCGAGGAUAUACAUGAGGAUCACCCAUGUGUGAGAAAAAAGUGAGGAAGAAAAGUAGAAGGCGCUGACG [salish99_ex3_r3_007] (puzzle: Exclusion 3) | – | – | – | 30.2 | 70.7 | 62.1
25 | GCGUAUGAGCAGGAUAUCCGACGGGAAUCCAAAGGAGAAGGGCUCACAUGAGGAUCACCCAUGUGGUCCAAAAC [Agediat] (puzzle: Exclusion 6) | – | – | – | 109 | 24 | 27.3
26 | UAUCAUCAUGUAGGAUAUGCGUGGCGAAGCUAUGCAGAAGGACAUGAGGAUCACCCAUGUUCUUGCGUCUGCGUACAGAUGCAA [Mat - Exclusion NG 1 - Mod of JL - D71] (Eterna round: R96, puzzle: Exclusion NG 1) | 218 | 38 | 66.7 | – | – | –
27 | CACAAUGACGUCAGGAUAUGUAAACAGCGAAGUUUGUAGAAGGGACAUGAGGAUCACCCAUGUAUAACUGGGAG [Eternabot (L2) Solution 27] (Eterna round: R97, puzzle: Brourd's mod of Exclusion 4) | 220 | – | 149 | – | – | –
28 | AAGAAACGAGGAUAUACAGUUGAGUGAGAGAGGGAAGUGUGACAUGAGGAUCACCCAUGUAGAAGGCGUGAGAG [JR_Exclu2_Sub087] (puzzle: Exclusion 2) | – | – | – | 49.1 | 40.4 | 76.8
29 | UUCGUGCAGCUUUGCUGUACGCGUACAUGAGGAUCACCCAUGUAGGAUAUGGUACGCAAAGCGUGCUAGAAGGAUAUGGAGAGG [Mat - Exclusion NG 3 - Mod of JL - D81] (Eterna round: R96, puzzle: Exclusion NG 3) | 11.7 | 8.08 | 13.1 | – | – | –
30 | CACCUGAAGAGAGGAUAUCAUACAUGAGGAUCACCCAUGUAAUAAAUGAGAAUUUCGAAUGUAAUUGAGAAGGCUCAAUAAGGC [Ostricism 95 - Jieux - Exclusion NG 2] (Eterna round: R96, puzzle: Exclusion NG 2) | 82.9 | 33 | 47.9 | – | – | –
31 | GUGUACAGAGGAUAUGCUGGAAUCUAGCGAAGCUAGGUUCCACAUGAGGAUCACCCAUGUAGAAGGCUGUACAC [Dot plot directed A v4] (puzzle: Exclusion 2) | – | – | – | – | 19.4 | –
32 | GUGUAGCGAGGAUAUACAUGAGGAUCACCCAUGUGAAUAAGAUAGAAUAAGAUAAAGUGUAGAAGGUGUAGUGU [Excluse me!!! 11 - Jieux - Exclusion 3] (puzzle: Exclusion 3) | – | – | – | 46.7 | 56 | 54.5
33 | UGAUCUAGCGGAGGAUAUACAUGAGGAUCACCCAUGUAUAGUCCAUGUGGUGACACGUGGAACAUGUAGAAGGCCGCUAGAUCU [JL ENG2 3.83] (Eterna round: R96, puzzle: Exclusion NG 2) | 228 | 24.8 | 23.1 | – | – | –
